In article PMC9667317, “Metal migration and subunit swapping in ALS-linked SOD1: Zn^2+ transfer between mutant and wild-type occurs faster than the rate of heterodimerization” (The Journal of Biological Chemistry, 2022):

Tests used:
Settings in all cases: both partners purified
[1] = target: T1, WT Cu, Zn superoxide dismutase-1 (SOD1), recombinant human (human, UniProt P00441 1-154); experiment: capillary electrophoresis; both homodimers as 4Zn-SOD1; 15 μM dimer each ([SOD1]total = 30 μM), followed over time; 10 mM potassium phosphate pH 7.4, CE at 22 °C, storage at 15 °C; KHet assumed from the fit extrapolated to t = 5000 min
T1 construct: Cu, Zn superoxide dismutase-1 (SOD1), human; Homodimer; intramolecular disulfide bond intact; N-terminus probably acetylated (surmise); also called WT SOD1; WT apo-SOD1; source: demetalated by dialysis, remetalated with ZnSO4 where stated

[2] = target: T1, WT Cu, Zn superoxide dismutase-1 …; experiment: capillary electrophoresis; both homodimers apo (metal-free, disulfide intact), mixed at 15 μM dimer each ([SOD1]total = 30 μM), followed over time; 10 mM potassium phosphate pH 7.4, CE at 22 °C, storage at 15 °C; KHet assumed from the fit extrapolated to t = 5000 min
[3] = target: T1, WT Cu, Zn superoxide dismutase-1 …; experiment: capillary electrophoresis; binder (first named) as 4Zn-SOD1, target (second named, WT or TD) as apo-SOD1; 15 μM dimer each ([SOD1]total = 30 μM), followed over time; 10 mM potassium phosphate pH 7.4, CE at 22 °C, storage at 15 °C; KHet assumed from the fit extrapolated to t = 5000 min
[4] = target: T1, WT Cu, Zn superoxide dismutase-1 …; experiment: capillary electrophoresis; binder (first named) as apo-SOD1, target (second named, WT or TD) as 4Zn-SOD1; 15 μM dimer each ([SOD1]total = 30 μM), followed over time; 10 mM potassium phosphate pH 7.4, CE at 22 °C, storage at 15 °C; KHet assumed from the fit extrapolated to t = 5000 min

T1 sequence (P00441 whole entry): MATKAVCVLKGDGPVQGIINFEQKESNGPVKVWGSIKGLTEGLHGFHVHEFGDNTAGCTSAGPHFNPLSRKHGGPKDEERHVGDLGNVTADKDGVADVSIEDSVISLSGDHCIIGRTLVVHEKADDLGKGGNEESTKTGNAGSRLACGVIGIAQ

B1: triply deamidated SOD1 (modeled with N26D/N131D/N139D substitutions), recombinant human (enzyme)
chain: not shown
notes: Cu, Zn superoxide dismutase-1 (SOD1), human, triple mutant N26D/N131D/N139D; printed mass of the apo subunit 15847 Da; Homodimer; disulfide intact; also called TD SOD1; TD; source: demetalated by dialysis, remetalated with ZnSO4 where stated
B1 was tested, and the “assumed KHet (t = 5000 min)” value [1] was 2.13 ± 0.71, the “kHet (rate constant of heterodimerization)” value [1] was 0.0038 min⁻¹ and the “assumed KHet (t = 5000 min)” value [2] was 2.34 ± 0.31. The “kHet (rate constant of heterodimerization)” value [2] was 0.0128 min⁻¹, the “assumed KHet (t = 5000 min)” value [3] was 2.09 ± 0.14 and the “kHet (rate constant of heterodimerization)” value [3] was 0.0041 min⁻¹. The “assumed KHet (t = 5000 min)” value [4] was 2.27 ± 0.08 and the “kHet (rate constant of heterodimerization)” value [4] was 0.0066 min⁻¹.
